The series concerns the molecule itself. The experiment in a line: SAXS.

By stoichiometry N is commonly meant the number of molecules, sites or subunits per partner or assembly.

B1: EccCb1 enzyme, full length (Met1-Glu591), M. tuberculosis ESX-1 (enzyme)
chain: MTAEPEVRTLREVVLDQLGTAESRAYKMWLPPLTNPVPLNELIARDRRQPLRFALGIMDEPRRHLQDVWGVDVSGAGGNIGIGGAPQTGKSTLLQTMVMSAAATHSPRNVQFYCIDLGGGGLIYLENLPHVGGVANRSEPDKVNRVVAEMQAVMRQRETTFKEHRVGSIGMYRQLRDDPSQPVASDPYGDVFLIIDGWPGFVGEFPDLEGQVQDLAAQGLAFGVHVIISTPRWTELKSRVRDYLGTKIEFRLGDVNETQIDRITREIPANRPGRAVSMEKHHLMIGVPRFDGVHSADNLVEAITAGVTQIASQHTEQAPPVRVLPERIHLHELDPNPPGPESDYRTRWEIPIGLRETDLTPAHCHMHTNPHLLIFGAAKSGKTTIAHAIARAICARNSPQQVRFMLADYRSGLLDAVPDTHLLGAGAINRNSASLDEAVQALAVNLKKRLPPTDLTTAQLRSRSWWSGFDVVLLVDDWHMIVGAAGGMPPMAPLAPLLPAAADIGLHIIVTCQMSQAYKATMDKFVGAAFGSGAPTMFLSGEKQEFPSSEFKVKRRPPGQAFLVSPDGKEVIQAPYIEPPEEVFAAPPSAG
Turning to B1, the “stoichiometry N” value stood at 12.

The record behind these values is article doi:10.1101/2021.05.31.446396 (bioRxiv, 2021).
